The source of these data is the supplement of paper PMC9112550, “Optimization of the antimicrobial peptide Bac7 by deep mutational scanning” (BMC Biology, 2022).

The subject of the data set is Escherichia coli TOP10. Put plainly: shrunken log2 fold change of peptide-encoding DNA abundance (4.5 h post-induction vs induction); higher = less antimicrobial activity (less host growth inhibition). The conditions noted are these: time post-induction: 4.5 h; library: site-saturation at positions 5, 18, 19, 20.
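Note: peptides expressed intracellularly from a pBAD plasmid library in pooled LB shake-flask culture, induced with 0.3% L-arabinose, DNA abundance read by NGS, three biological replicates, DESeq2 with apeglm shrinkage.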

For the sequence RRIRYRPPRLPRPRPRPAPHPRP, the “shrunken log2 fold change” value is -0.247.

For the sequence RRIRCRPPRLPRPRPRPKNRPRP, the “shrunken log2 fold change” value was -0.118. Then RRIRKRPPRLPRPRPRPCHFPRP, with -0.0404; and RRIRSRPPRLPRPRPRPHGYPRP, with -0.244; and RRIRMRPPRLPRPRPRPRCPPRP, with 0.757. With RRIRERPPRLPRPRPRPVVWPRP, the “shrunken log2 fold change” value came to 0.33. With RRIRLRPPRLPRPRPRPWFQPRP the figure was -0.0555; with RRIRIRPPRLPRPRPRPACLPRP, -0.228. Then RRIRGRPPRLPRPRPRPCWHPRP, with 0.357; and RRIRLRPPRLPRPRPRPRVHPRP, with 0.0142. As for RRIRDRPPRLPRPRPRPWGFPRP, the “shrunken log2 fold change” value turned out to be 0.13. Then RRIRWRPPRLPRPRPRPMNNPRP, with -0.606; and RRIRVRPPRLPRPRPRPWITPRP, with -1.08; and RRIRLRPPRLPRPRPRPEKTPRP, with -0.00142. For RRIRGRPPRLPRPRPRPNMKPRP, the “shrunken log2 fold change” value is 0.275. Then RRIRQRPPRLPRPRPRPMPTPRP, with 0.0311; and RRIRGRPPRLPRPRPRPTFTPRP, with 0.638. Then RRIRERPPRLPRPRPRPSYGPRP, with -0.708. Turning to RRIRLRPPRLPRPRPRPMTWPRP, the “shrunken log2 fold change” value is -0.384. Consider RRIRRRPPRLPRPRPRPYEIPRP, for which the “shrunken log2 fold change” value is -0.39. For RRIRHRPPRLPRPRPRPCVRPRP, the “shrunken log2 fold change” value was -0.504. For RRIRSRPPRLPRPRPRPFLDPRP, the “shrunken log2 fold change” value is -0.149. For the sequence RRIRARPPRLPRPRPRPYQTPRP, the “shrunken log2 fold change” value was found to be 0.00502.

For the sequence RRIRARPPRLPRPRPRPGMPPRP, the “shrunken log2 fold change” value came to 0.128. As for RRIRKRPPRLPRPRPRPYCRPRP, the “shrunken log2 fold change” value is -0.214. Then RRIRVRPPRLPRPRPRPFDDPRP, with -0.175. With RRIRIRPPRLPRPRPRPPSVPRP the figure was -0.0681; with RRIRYRPPRLPRPRPRPETGPRP, -0.0691; with RRIRFRPPRLPRPRPRPHHLPRP, -1.06. With RRIRKRPPRLPRPRPRPDQFPRP, the “shrunken log2 fold change” value was -0.0391. Then RRIRHRPPRLPRPRPRPQFYPRP, with -0.192. Take RRIRHRPPRLPRPRPRPCEPPRP: the “shrunken log2 fold change” value came to 0.195. With RRIRGRPPRLPRPRPRPGGRPRP the figure was 1.09. Consider RRIRLRPPRLPRPRPRPCCEPRP, for which the “shrunken log2 fold change” value was 0.812. With RRIRQRPPRLPRPRPRPFCDPRP the figure was -0.259. Consider RRIRKRPPRLPRPRPRPRPCPRP, for which the “shrunken log2 fold change” value was determined as 0.365. RRIRPRPPRLPRPRPRPAHCPRP: the “shrunken log2 fold change” value came out at 0.0637. Regarding RRIRGRPPRLPRPRPRPYTQPRP, the “shrunken log2 fold change” value was -0.0862. With RRIRIRPPRLPRPRPRPGCEPRP the figure was -0.0688. On to RRIRQRPPRLPRPRPRPTRMPRP, for which the “shrunken log2 fold change” value worked out at 0.185. As for RRIRIRPPRLPRPRPRPMVAPRP, the “shrunken log2 fold change” value is -0.14. Take RRIRFRPPRLPRPRPRPSWRPRP: the “shrunken log2 fold change” value was found to be 0.167.

For the sequence RRIRCRPPRLPRPRPRPHDYPRP, the “shrunken log2 fold change” value is -0.482. With RRIRPRPPRLPRPRPRPTTFPRP the figure was -0.173. Then RRIRIRPPRLPRPRPRPYIAPRP, with -0.158. Then RRIRVRPPRLPRPRPRPILTPRP, with -0.443; and RRIRNRPPRLPRPRPRPMWAPRP, with -0.0203; and RRIRYRPPRLPRPRPRPHHPPRP, with -0.38.

In the case of RRIRGRPPRLPRPRPRPLCTPRP, the “shrunken log2 fold change” value amounted to 2.26. Then RRIRQRPPRLPRPRPRPTQSPRP, with 0.375; and RRIRPRPPRLPRPRPRPDCKPRP, with -0.133.

On to RRIRFRPPRLPRPRPRPESRPRP, for which the “shrunken log2 fold change” value came to 0.146.

Regarding RRIRRRPPRLPRPRPRPHSMPRP, the “shrunken log2 fold change” value was -0.118. Then RRIRMRPPRLPRPRPRPQAYPRP, with -0.0933; and RRIRIRPPRLPRPRPRPAAAPRP, with 0.286. With RRIRKRPPRLPRPRPRPLCEPRP the figure was 0.446; with RRIRRRPPRLPRPRPRPDDEPRP, 0.0458; with RRIRHRPPRLPRPRPRPLRMPRP, -0.0592. Regarding RRIRSRPPRLPRPRPRPPWDPRP, the “shrunken log2 fold change” value was found to be 0.409. As for RRIRHRPPRLPRPRPRPASTPRP, the “shrunken log2 fold change” value is -0.357. With RRIRRRPPRLPRPRPRPDCCPRP the figure was 0.168.

RRIRGRPPRLPRPRPRPKTSPRP: the “shrunken log2 fold change” value was found to be 0.702. Turning to RRIRFRPPRLPRPRPRPKYDPRP, the “shrunken log2 fold change” value was -0.606. Consider RRIRWRPPRLPRPRPRPSCPPRP, for which the “shrunken log2 fold change” value is -0.33. On to RRIRFRPPRLPRPRPRPGCIPRP, for which the “shrunken log2 fold change” value was -0.241.

As for RRIRRRPPRLPRPRPRPMDSPRP, the “shrunken log2 fold change” value was -0.0307. Then RRIRDRPPRLPRPRPRPYLNPRP, with -0.272; and RRIRRRPPRLPRPRPRPHIEPRP, with -0.00196. With RRIRHRPPRLPRPRPRPEFQPRP, the “shrunken log2 fold change” value was -0.0862. For the sequence RRIRTRPPRLPRPRPRPLETPRP, the “shrunken log2 fold change” value was determined as 0.0461. With RRIRLRPPRLPRPRPRPKVGPRP the figure was 0.109; with RRIRLRPPRLPRPRPRPWFCPRP, -0.195; with RRIRCRPPRLPRPRPRPMAHPRP, -0.00655. With RRIRPRPPRLPRPRPRPKQNPRP the figure was 0.0525; with RRIRFRPPRLPRPRPRPPLYPRP, -0.0579.

With RRIRLRPPRLPRPRPRPRHTPRP, the “shrunken log2 fold change” value was -0.236. With RRIRRRPPRLPRPRPRPWWRPRP the figure was 0.463; with RRIRRRPPRLPRPRPRPQMKPRP, -0.0643. RRIRHRPPRLPRPRPRPECSPRP: the “shrunken log2 fold change” value was -0.0101. Turning to RRIRHRPPRLPRPRPRPITHPRP, the “shrunken log2 fold change” value was -0.23. Then RRIRTRPPRLPRPRPRPAISPRP, with 0.09; and RRIRYRPPRLPRPRPRPIGHPRP, with 3.4; and RRIRIRPPRLPRPRPRPTLDPRP, with 1.36.

Consider RRIRPRPPRLPRPRPRPWVCPRP, for which the “shrunken log2 fold change” value is 0.23. Then RRIRQRPPRLPRPRPRPPLSPRP, with 0.0729. Turning to RRIRHRPPRLPRPRPRPEFIPRP, the “shrunken log2 fold change” value is -0.0433.

In the case of RRIRVRPPRLPRPRPRPNLFPRP, the “shrunken log2 fold change” value was -0.355. Take RRIRKRPPRLPRPRPRPRVLPRP: the “shrunken log2 fold change” value was found to be 0.498. With RRIRFRPPRLPRPRPRPVYCPRP the figure was -0.408; with RRIRKRPPRLPRPRPRPRIIPRP, 0.081; with RRIRVRPPRLPRPRPRPGYYPRP, -0.248. Consider RRIRNRPPRLPRPRPRPTCKPRP, for which the “shrunken log2 fold change” value is -0.0431.

With RRIRSRPPRLPRPRPRPDSRPRP, the “shrunken log2 fold change” value worked out at 0.148. Take RRIRARPPRLPRPRPRPWEKPRP: the “shrunken log2 fold change” value was -0.164. As to RRIRHRPPRLPRPRPRPSYWPRP, the “shrunken log2 fold change” value amounted to 0.0148. With RRIRDRPPRLPRPRPRPEICPRP the figure was 0.023; with RRIRERPPRLPRPRPRPLQLPRP, -0.33.

As for RRIRLRPPRLPRPRPRPHVGPRP, the “shrunken log2 fold change” value was -0.442. Then RRIRSRPPRLPRPRPRPNQCPRP, with -0.215. With RRIRCRPPRLPRPRPRPFNQPRP the figure was -0.421. With RRIRYRPPRLPRPRPRPTFHPRP the figure was -0.649; with RRIRARPPRLPRPRPRPFLDPRP, 0.116; with RRIRLRPPRLPRPRPRPAYGPRP, -0.0437. RRIRQRPPRLPRPRPRPYIHPRP: the “shrunken log2 fold change” value was -0.912. With RRIRCRPPRLPRPRPRPYSYPRP the figure was -0.0951; with RRIRFRPPRLPRPRPRPNIAPRP, -0.255. For the sequence RRIRARPPRLPRPRPRPASNPRP, the “shrunken log2 fold change” value worked out at 0.5. With RRIRMRPPRLPRPRPRPAEWPRP the figure was 0.375. With RRIRIRPPRLPRPRPRPTYWPRP the figure was -0.421; with RRIRERPPRLPRPRPRPPWEPRP, 0.145; with RRIRRRPPRLPRPRPRPLKVPRP, 0.0966. With RRIRYRPPRLPRPRPRPPKTPRP the figure was -0.38. Regarding RRIRNRPPRLPRPRPRPTENPRP, the “shrunken log2 fold change” value was determined as 0.0685. Then RRIRCRPPRLPRPRPRPEHIPRP, with -0.218; and RRIRRRPPRLPRPRPRPDPLPRP, with 0.119; and RRIRRRPPRLPRPRPRPWGGPRP, with 0.53. Then RRIRGRPPRLPRPRPRPALRPRP, with 0.991. With RRIRGRPPRLPRPRPRPVATPRP the figure was 2.32; with RRIRCRPPRLPRPRPRPGASPRP, 0.519; with RRIRYRPPRLPRPRPRPAREPRP, 0.00627. On to RRIRDRPPRLPRPRPRPESMPRP, for which the “shrunken log2 fold change” value is 0.0145. Then RRIRFRPPRLPRPRPRPTSAPRP, with 0.344; and RRIRSRPPRLPRPRPRPLFQPRP, with -0.126; and RRIRARPPRLPRPRPRPYYAPRP, with -0.501.

Consider RRIRVRPPRLPRPRPRPCVRPRP, for which the “shrunken log2 fold change” value was 0.0421.
